The results in this text go back to paper PMC12627605 (Nature Communications, 2025).

Assay [1] has as its target T1, GST-PP2C51 (rice, UniProt Q65XK7 1-381).
T1 sequence: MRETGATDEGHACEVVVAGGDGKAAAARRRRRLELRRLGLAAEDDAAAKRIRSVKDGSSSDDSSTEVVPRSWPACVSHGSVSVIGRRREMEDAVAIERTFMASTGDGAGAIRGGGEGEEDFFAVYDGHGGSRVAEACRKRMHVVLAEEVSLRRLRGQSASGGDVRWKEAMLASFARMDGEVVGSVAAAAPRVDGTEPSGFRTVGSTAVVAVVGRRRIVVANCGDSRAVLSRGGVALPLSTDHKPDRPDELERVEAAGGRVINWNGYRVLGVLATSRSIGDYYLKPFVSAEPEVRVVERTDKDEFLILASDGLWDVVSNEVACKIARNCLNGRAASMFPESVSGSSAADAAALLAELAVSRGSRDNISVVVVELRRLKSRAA
The experiment in a line: pull-down.

Assay [2] concerns the target T2, GST-PP2C30 (rice, UniProt Q84JI0 1-404).
T2 sequence: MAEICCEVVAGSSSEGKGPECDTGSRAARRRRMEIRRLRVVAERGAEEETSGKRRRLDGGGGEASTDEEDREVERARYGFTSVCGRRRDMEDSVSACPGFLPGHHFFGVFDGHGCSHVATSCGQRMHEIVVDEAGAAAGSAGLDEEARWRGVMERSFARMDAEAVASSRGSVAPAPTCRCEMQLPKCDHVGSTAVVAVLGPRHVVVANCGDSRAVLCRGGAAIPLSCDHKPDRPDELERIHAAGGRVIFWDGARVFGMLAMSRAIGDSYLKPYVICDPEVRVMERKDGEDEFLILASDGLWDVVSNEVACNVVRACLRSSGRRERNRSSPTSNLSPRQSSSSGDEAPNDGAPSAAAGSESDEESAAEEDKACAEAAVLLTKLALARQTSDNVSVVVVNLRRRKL
The experiment in a line: pull-down.

B1: SAPK2-His (natural protein)
chain: MERYEVIKDIGSGNFGVAKLVRDVRTKELFAVKFIERGQKIDENVQREIMNHRSLRHPNIVRFKEVVLTPTHLAIVMEYAAGGELFERICSAGRFSEDEARFFFQQLISGVSYCHSMQICHRDLKLENTLLDGSIAPRLKICDFGYSKSSLLHSQPKSTVGTPAYIAPEVLARKEYDGKVADVWSCGVTLYVMLVGAYPFEDPDEPRNFRKTITRILSVQYMVPDYVRVSMECRHLLSRIFVANPEQRITIPEIKNHPWFLKNLPIEMTDEYQMSVQMNDINTPSQGLEEIMAIIQEARKPGDGSKFSGQIPGLGSMELDDVDTDDIDVEDSGDFVCAL
As for B1, the binding result in assay [1] and in assay [2] was “binds” in each case.
